This note sets out measurements from CN101448941A.

The target in experiment [1] is 人血小板生成素受体 (人c-Mpl) (human) (UniProt P40238). As to the kind of experiment: cell-based or functional assay.
The target is the same in experiment [2]. As to the kind of experiment: flow cytometry on FM3A-hMpl cells. (In general: A flow cytometer gives signals particle by particle.)

B1: 7-10G4344uhm轻链突变抗体 7-10VL_Y94F (antibody, part only; not given: heavy chain, not shown: a dimerising Fc or GST)
light: AIQLTQSPSSLSASVGDRVTITCRASQGISSALAWYQQKPGKAPKLLIYDASSLESGVPSRFSGSGSGTDFTLTISSLQPEDFATYYCQQFNSFPLTFGGGTKVEIK
The molecule B1 displayed a 激动活性 (UT-7/TPO细胞增殖试验), relative to 7-10G4344uhm (of the original level) in experiment [1] of 0.1. Moreover, the 结合活性 relative to the original 7-10G4344uhm (of the original level) in experiment [2] was 0.1.
